Laboratory results from publication PMC6028451.

Legend:
[1] = biological target: SRP(MDCC): signal recognition particle with MDCC at position 235 in the G domain of Ffh (Escherichia coli) (UniProt P0AGD7); experiment: stopped-flow FRET kinetics; Lep50-RNC (30 nM) in complex with SRP(MDCC) (500 nM) rapidly mixed with FtsY(Bpy) (1 µM); no SecYEG
[2] = biological target: SRP(MDCC): signal recognition particle with MDCC at position 235 in the G domain of Ffh (Escherichia coli) (UniProt P0AGD7); experiment: other fluorescence titration; as a22 (Lep75-RNC), with SecYEG in nanodiscs (300 nM); apparent
[3] = biological target: SRP(MDCC): signal recognition particle with MDCC at position 235 in the G domain of Ffh (Escherichia coli) (UniProt P0AGD7); experiment: other fluorescence titration; SRP(MDCC) 25 nM titrated with FtsY(Bpy); SRP bound to Lep50-RNC (10 nM); buffer A, 25 °C; apparent
[4] = biological target: SRP(MDCC): signal recognition particle with MDCC at position 235 in the G domain of Ffh (Escherichia coli) (UniProt P0AGD7); experiment: other fluorescence titration; equilibrium titration monitored by FRET; SRP(MDCC) 25 nM titrated with FtsY(Bpy); SRP bound to 70S ribosomes (500 nM); buffer A, 25 °C; apparent
[5] = biological target: SRP(MDCC): signal recognition particle with MDCC at position 235 in the G domain of Ffh (Escherichia coli) (UniProt P0AGD7); experiment: stopped-flow FRET kinetics; 70S ribosomes (50 nM) in complex with SRP(MDCC) (500 nM) rapidly mixed with FtsY(Bpy) (1 µM); acceptor (Bpy) fluorescence; no SecYEG
[6] = biological target: FtsY (Escherichia coli) (UniProt P10121); conditions: cited from earlier work
[7] = biological target: SRP (Escherichia coli) (UniProt P0AGD7); conditions: cited from earlier work
[8] = biological target: Lep50- or Lep75-RNC; experiment: other fluorescence titration; equilibrium titration monitored by FRET; (Bpy)Lep-RNC 4 nM titrated with SRP(Alx), GDPNP 500 µM, buffer A, 25 °C; apparent; without SecYEG
[9] = biological target: (Bpy)Lep50-RNC: stalled ribosome-nascent-chain complex with a nascent chain of leader peptidase (Lep) of 50 amino acids, Bodipy FL at the N-terminal methionine (Escherichia coli) (UniProt P00803); experiment: other fluorescence titration; as a5, in the presence of FtsY (1 µM) and SecY39EG in nanodiscs; apparent
[10] = biological target: (Bpy)Lep75-RNC: stalled ribosome-nascent-chain complex with a nascent chain of leader peptidase (Lep) of 75 amino acids, Bodipy FL at the N-terminal methionine (Escherichia coli) (UniProt P00803); experiment: as above
[11] = biological target: (Bpy)Lep50-RNC: stalled ribosome-nascent-chain complex with a nascent chain of leader peptidase (Lep) of 50 amino acids, Bodipy FL at the N-terminal methionine (Escherichia coli) (UniProt P00803); experiment: other fluorescence titration; as a5, RNC in complex with FtsY (1 µM) and SecYEG in nanodiscs (increasing to saturating); apparent
[12] = biological target: (Bpy)Lep75-RNC: stalled ribosome-nascent-chain complex with a nascent chain of leader peptidase (Lep) of 75 amino acids, Bodipy FL at the N-terminal methionine (Escherichia coli) (UniProt P00803); experiment: as above
[13] = biological target: Lep50- or Lep75-RNC; experiment: other fluorescence titration; as a5, in the presence of saturating amounts of SecYEG in nanodiscs; apparent

Chain of FtsY (P10121 2-497): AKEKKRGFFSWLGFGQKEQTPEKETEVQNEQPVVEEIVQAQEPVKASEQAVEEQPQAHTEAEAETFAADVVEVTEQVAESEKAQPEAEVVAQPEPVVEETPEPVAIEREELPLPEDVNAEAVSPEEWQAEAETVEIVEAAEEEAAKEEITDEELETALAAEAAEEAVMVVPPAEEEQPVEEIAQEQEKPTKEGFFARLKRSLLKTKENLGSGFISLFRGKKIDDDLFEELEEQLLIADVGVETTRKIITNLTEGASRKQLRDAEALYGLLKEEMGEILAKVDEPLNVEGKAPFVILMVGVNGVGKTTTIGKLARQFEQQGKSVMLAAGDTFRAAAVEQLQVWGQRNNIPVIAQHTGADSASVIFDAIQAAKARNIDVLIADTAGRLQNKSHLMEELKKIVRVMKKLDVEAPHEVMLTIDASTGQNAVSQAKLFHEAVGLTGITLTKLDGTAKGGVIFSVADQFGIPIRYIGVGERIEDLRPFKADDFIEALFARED
Chain of SecYEG (P0AGA2 whole entry): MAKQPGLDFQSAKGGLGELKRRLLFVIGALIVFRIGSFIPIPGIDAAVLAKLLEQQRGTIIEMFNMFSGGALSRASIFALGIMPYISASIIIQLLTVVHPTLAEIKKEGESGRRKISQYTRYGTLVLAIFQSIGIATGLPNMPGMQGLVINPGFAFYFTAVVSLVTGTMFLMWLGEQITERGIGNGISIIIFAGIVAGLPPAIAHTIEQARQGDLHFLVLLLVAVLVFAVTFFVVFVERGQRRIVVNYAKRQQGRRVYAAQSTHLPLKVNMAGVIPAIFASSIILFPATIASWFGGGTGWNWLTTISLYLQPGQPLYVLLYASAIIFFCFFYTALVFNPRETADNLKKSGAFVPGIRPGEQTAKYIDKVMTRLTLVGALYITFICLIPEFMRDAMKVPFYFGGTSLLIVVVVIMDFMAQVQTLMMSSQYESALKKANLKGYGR
Chain of SecYEG (P0AG96 whole entry, further chain): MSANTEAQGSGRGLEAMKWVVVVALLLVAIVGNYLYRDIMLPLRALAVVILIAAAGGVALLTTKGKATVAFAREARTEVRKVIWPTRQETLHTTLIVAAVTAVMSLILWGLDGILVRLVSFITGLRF
Chain of SecYEG (P0AG99 whole entry, further chain): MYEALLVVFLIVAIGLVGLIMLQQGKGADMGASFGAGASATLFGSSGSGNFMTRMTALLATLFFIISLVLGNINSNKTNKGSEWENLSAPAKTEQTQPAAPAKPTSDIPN

For “FtsY(Bpy): SRP receptor FtsY with Bodipy FL at position 487 in the N domain (from UniProt P10121 1-497)”, the average half-life time of association [1] was 1 s, the Kd [2] was 40 nM and the fold increase of the appKd with SecYEG against without SecYEG [2] was 10 fold. For the same substance, the Kd [3] was 5 to 10 nM, the Kd [4] was 50 nM and the half-life time of association [5] was 15 s.

In the case of SecYEG (from UniProt P0AGA2), the Kd [6] is listed as 200 nM.

In the case of FtsY (from UniProt P10121), the Kd [7] is given as 500 nM.

“SRP(Alx): signal recognition particle with Alexa555 at position 430 in the M domain of SRP protein Ffh (from UniProt P0AGD7 1-453) (complex)” gave a Kd [8] of 3 to 4 nM, a fold change of the apparent affinity with SecY39EG–FtsY [9] of under 5 fold and a fold change of the apparent affinity with SecY39EG–FtsY [10] of under 5 fold. The Kd [11] was 50 nM, the α (factor by which the appKd of SRP binding is increased by SecYEG–FtsY) [12] was 4 and the Kd [13] was 15 to 20 nM.
